Results on 18 molecules are retold here after patent US20070258982A1 (Pfizer, published 2007).

The labels stand for the following.
T1: IL-26 (human, UniProt Q9NPH9)
T1 construct: also called human IL-26
T1 sequence (cytokine, looked up): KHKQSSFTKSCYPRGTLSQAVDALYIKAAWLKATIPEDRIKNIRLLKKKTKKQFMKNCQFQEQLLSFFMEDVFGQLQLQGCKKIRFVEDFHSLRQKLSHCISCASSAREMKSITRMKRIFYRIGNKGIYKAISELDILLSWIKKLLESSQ

T2: human IL-22 (human, UniProt Q9GZX6 34-179)
T2 sequence: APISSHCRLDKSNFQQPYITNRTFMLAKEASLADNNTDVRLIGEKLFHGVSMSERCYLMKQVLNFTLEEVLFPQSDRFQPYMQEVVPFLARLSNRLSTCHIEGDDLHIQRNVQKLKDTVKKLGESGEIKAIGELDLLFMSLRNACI

B1: 062G05 IgG (non-germlined) (antibody, V domains shown)
VH: QVQLVESGAEVKKPGASVKVSCKASGYTFTSYGISWVRQAPGQGLEWMGWISAYTGNTNYAQKFQGRVTMTTDTSTSTAYMELRSLRSDDTAVYYCARDRGYYDAFDIWGQGTLVTVSS
VL: DIQMTQSPSTLSASIGDRVTITCRASEGIYHWLAWYQQKPGKAPKLLIYKASSLASGAPSRFSGSGFGTDFTLTISSLQPDDFATYYCQQMGEWKAAFGGGTKLEIKR
notes: IgG
B2: 367D04 IgG (non-germlined) (antibody, V domains shown)
VH: EVQLVESGGGVVRPGGSLRLSCAASGFTFDDYGMNWVRQAPGKGLEWVSGVNWNGGTRDYAASVKGRFTISRDNAKNSLYLQMNSLRAEDTALYYCARGWYSGSPWSLGHWGRGTLVTVSS
VL: QAVLTQPSSVSGSPGQSVTISCTGASGDVGAYNFVSWYQQHPGKTPKLIIYDVNKRPSGVSNRFSGSKSGNTASLTISRLQAEDESDYYCSSYTSRYTTEFGGGTKVTVLG
notes: IgG
B3: 368D04 IgG (non-germlined) (antibody, V domains shown)
VH: B2 VH with S104A, P105A, S107N, L108M, H110Y
VL: B2 VL with V18I, R79G, S91A, Y93L, T94V, R96D, Y97F, T98S, T99V, E100V
B4: 166B06 IgG (germlined) (antibody, V domains shown)
VH: QVQLVQSGAEVKKPGASVKVSCKASGYTFSDYYIHWVRQAPGQGLEWMGWVNPDTGGTRYAQKFQGRVTMTRDMSISTAYMELSRLRSDDTAVYYCARDLTGFDPFDIWGQGTLVTVSS
VL: SSVLTQPPSVSVAPGKTARITCGGNNFRNKRVHWYQQKPGQAPVLVIYYDSDRPSGIPERFSGSRSGNTATLTISRVEAGDEADYYCQVWDLFNDNGVFGGGTKLTVLG
B5: 166G05 IgG (germlined) (antibody, V domains shown)
VH: B4 VH
VL: B4 VL with L92F, F93L, N94T, N96S, V98S
B6: 355B06 IgG (germlined) (antibody, V domains shown)
VH: QVQLVQSGAEVKKPGASVKVSCKASGYTFTDYYMHWVRQAPGQGLEWVGWINPYTGSAFYAQKFRGRVTMTRDTSISTAYMELSRLRSDDTAVYYCAREPEKFGESSGQLWGRGTLVTVSS
VL: QAVLTQPPSVSGAPGQRVTISCTGSSSNIGAGYGVHWYQQLPGTAPKLLIYGDSNRPSGVPDRFSGSKSGTSASLAITGLQAEDEADYYCQSYDSGLSGYVFGGGTQLTVLG
B7: 356A11 IgG (germlined; Tables 6 and 9) (antibody, V domains shown)
VH: B6 VH with D31N, G104D, E105S, S106D, S107D, G108S, Q109D, L110V
VL: B6 VL with S95N, G96S
B8: 354A08 IgG (germlined) (antibody, V domains shown)
VH: B6 VH with S57G, K102R, E105D, S107T, L110V
VL: B6 VL with D53N, Q91Y, S92H, Y93W, S95K, G96E, L97Q
notes: isotype of this preparation not restated
B9: 355E04 IgG (germlined) (antibody, V domains shown)
VH: B6 VH with D31H, S57G, R65Q, G104D, E105S, S106P, S107N, G108A, Q109E, L110I
VL: B6 VL with D53N, G96S
B10: 087B03 IgG (germlined) (antibody, V domains shown)
VH: B2 VH with Y95H, S104A, P105A, S107N, L108M, H110Y
VL: QAALTQPASVSGSPGQSITISCTGASGDVGAYNFVSWYQQHPGKAPKLIIYDVNKRPSGVSNRFSGSKSGNTASLTISGLQAEDEADYYCSSYTSTFSVVFGGGTKLTVLG
B11: 355B06 scFv (non-germlined) (scFv)
scFv: EVQLVQSGAEVKKPGASVKVSCQASGYTFTDYYMHWVRQAPGQGLEWVGWINPYTGSAFYAQKFRGRATMTRNTSINTAYMELSRLGSDDTAVYYCAREPEKFGESSGQLWGRGTMVTISSGGGGSGGGGSGGSGSAQAVLTQPSSVSGAPGQRVTISCTGSSSNIGPGYGVHWYQQLPGTAPKLLIYGDSNRPSGVPDRFSGSKSGTSASLAITGLQAEDEADYYCQSYDSGLSGYVFGTGTQLTVLSA
B12: 356A11 scFv (non-germlined) (scFv)
scFv: QVQLVQSGAEVKKPGASVKVSCKASGYTFTNYYMHWVRQAPGQGLEWVGWINPYTGSAFYAQKFRGRVTMTRDTSINTAYMELSRLGSDDTAVYYCAREPEKFDSDDSDVWGRGTMVTVSGGGGSSGGGGSGGSGSAQAVLTPPSVSGAPGQRVTISCTGSSSNIGAGYGVHWYQQLPGTAPKLIIYGDSSRPSGVPDRFSGSKSGTSASLAITGLQAEDEADYYCQSYDNSLSGYVFGTGTQLTVLSA
B13: 062A09 IgG (non-germlined) (antibody, V domains shown)
VH: B1 VH with I51V, S85G
VL: B1 VL with W94Y, K95N, A97T, F98I
B14: 062G05 scFv (non-germlined) (scFv)
scFv: QVQLVESGAEVKKPGASVKVSCKASGYTFTSYGISWVRQAPGQGLEWMGWISAYTGNTNYAQKFQGRVTMTTDTSTSTAYMELRSLRSDDTAVYYCARDRGYYDAFDIWGQGTLVTVSSGGGGSGGGGSGGGGSDIQMTQSPSTLSASIGDRVTITCRASEGIYHWLAWYQQKPGKAPKLLIYKASSLASGAPSRFSGSGFGTDFTLTISSLQPDDFATYYCQQMGEWKAAFGGGTKLEIKRAAAH
B15: 062A09 scFv (non-germlined) (scFv)
scFv: B14 scFv with I51V, S85G, F106Y, W228Y, K229N, A231T, F232I
B16: 355E04 scFv (non-germlined) (scFv)
scFv: QVQLVQSGAEVKKPGASVKVSCKASGYTFTHYYMHWVRQAPGQGLEWVGWINPYTGGAFYAQKFQGRVTMTRDTSINTAYMELSRLGSDDTAVYYCAREPEKFDSPNAEIWGRGTMVTISSEGGGSGGGGSGGSGSAQAVLTQPSSVSGAPGQRVTISCTGSSSNIGAGYGVHWYQQLPGTAPKLLIYGNSNRPSGVPDRFSGSKSGTSASLAITGLQAEDEADYYCQSYDSSLSGYVFGTGTQLTVLSA
B17: 087B03 scFv (non-germlined) (scFv)
scFv: EVQLVESGGGVVRPGGSLRLSCAASGFTFDDYGMNWVRQAPGKGLEWVSGVNWNGGTRDYAASVKGRFTISRDNAKNSLYLQMNSLRAEDTALYYCARGWYSGAAWNMGYWGRGTLVTVSSGGGGSGGGGSGGGGSAQAVLTQPSSVSGSPGQSITISCTGASGDVGAYNFVSWYQQHPGKTPKLIIYDVNKRPSGVSNRFSGSKSSNTASLTISGLQAEDESDYYCSSYTSTFSVVFGGGTKVTVLGAAAH
B18: 367D04 scFv (non-germlined) (scFv)
scFv: EVQLVESGGGVVRPGGSLRLSCAASGFTFDDYGMNWVRQAPGKGLEWVSGVNWNGGTRDYAASVKGRFTISRDNAKNSLYLQMNSLRAEDTALYYCARGWYSGSPWSLGHWGRGTLVTVSSGGGGSGGGGSGGSGGGSGGSGGGSSGGGSGGGGSAQAVLTQPSSVSGSPGQSVTISCTGASGDVGAYNFVSWYQQHPGKTPKLIIYDVNKRPSGVSNRFSGSKSGNTASLTISRLQAEDESDYYCSSYTSRYTTEFGGGTKVTVLGAAAH

Substitutions are numbered along the chain they refer to.

One experiment deals with T3, BSA (bovine, UniProt P02769).
T3 construct: also called bovine serum albumin
T3 sequence (P02769 25-607 limits assumed): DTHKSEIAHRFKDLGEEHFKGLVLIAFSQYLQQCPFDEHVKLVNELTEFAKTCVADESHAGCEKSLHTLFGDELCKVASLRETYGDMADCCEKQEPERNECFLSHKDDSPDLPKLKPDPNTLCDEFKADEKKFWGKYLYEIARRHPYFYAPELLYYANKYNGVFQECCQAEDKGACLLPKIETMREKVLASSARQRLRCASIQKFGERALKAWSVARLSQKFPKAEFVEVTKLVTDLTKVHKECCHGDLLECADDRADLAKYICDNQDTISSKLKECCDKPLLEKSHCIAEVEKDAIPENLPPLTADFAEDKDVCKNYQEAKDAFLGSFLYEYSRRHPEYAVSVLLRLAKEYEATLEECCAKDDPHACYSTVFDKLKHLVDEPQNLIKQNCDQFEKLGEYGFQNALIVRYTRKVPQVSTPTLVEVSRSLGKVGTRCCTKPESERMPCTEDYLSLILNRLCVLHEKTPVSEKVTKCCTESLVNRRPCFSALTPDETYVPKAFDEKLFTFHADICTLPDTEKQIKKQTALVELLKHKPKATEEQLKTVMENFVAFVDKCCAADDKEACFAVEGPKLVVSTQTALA
Put plainly: ELISA: plate coated with antigen, IgG added at 1 µg/ml, HRP goat anti-human IgG, A450.
B1: the binding result was “no binding (tested: 1 µg/ml)”. The same measure, in the same setting: the entry for B2 is “no binding (tested: 1 µg/ml)”; for B3 it is “no binding (tested: 1 µg/ml)”.

The next experiment has as its target T1, IL-26. Put plainly: ELISA: plate coated with 1 µg/ml antigen, IgG added at 1 µg/ml, HRP goat anti-human IgG, A450. The method, then: Cross species reactivity of germlined and non-germlined optimized antibodies were determined as follows: ELISA plates (Costar, Cat. #3590) were coated overnight with 1 μg/ml of rat, mouse, or human IL-22 or human IL-26 in PBS buffer. Plates were washed with PBST buffer (0.05% Tween20 in PBS) 3 times, then blocked with 1% BSA (Sigma A8918)/PBST for 1 hr at RT. Antibodies were added at 1 μg/ml, incubated 1 hr at 25° C. […] The plates were incubated for 1 hour at 25° C., then washed with PBST, and developed with TMB (KPL, Cat. #50-76-04). Reaction was stopped with 0.18 M H₂SO₄ Plates were read at OD 450 nm.
Background: In an ELISA, binding on a coated surface is turned into a signal by an enzyme label.
With B4, the binding result is reported as “no binding (tested: 1 µg/ml)”. The same measure, in the same setting: in the case of B5 it was “no binding (tested: 1 µg/ml)”; in that of B6, “no binding (tested: 1 µg/ml)”; in that of B7, “no binding (tested: 1 µg/ml)”. For the molecule B8, the binding result was “no binding (tested: 1 µg/ml)”. The same measure, in the same setting: in the case of B9 it was “no binding (tested: 1 µg/ml)”; in that of B2, “no binding (tested: 1 µg/ml)”; in that of B10, “no binding (tested: 1 µg/ml)”. Still for that read-out and setting: the entry for B3 is “no binding (tested: 1 µg/ml)”.

The target in another experiment is T3, BSA. Put plainly: ELISA: plate coated with antigen, IgG added at 1 µg/ml, HRP goat anti-human IgG, A450. This is another data set of the same source.
As to B4, the binding result is given as “no binding (tested: 1 µg/ml)”. The same measure, in the same setting: in the case of B5 it was “no binding (tested: 1 µg/ml)”; in that of B6, “no binding (tested: 1 µg/ml)”; in that of B7, “no binding (tested: 1 µg/ml)”. The same measure, in the same setting: in the case of B8 it was “no binding (tested: 1 µg/ml)”; in that of B9, “no binding (tested: 1 µg/ml)”. Same read-out and setting: the entry for B10 is “no binding (tested: 1 µg/ml)”.

The target in another experiment is T2, human IL-22. Put plainly: cell-based or functional assay.
B11: the “IC50 of scFv (pM) in BaF3-IL-22 proliferation assay” value (from here on “IC50 of scFv (pM)”) is 183 pM.

As to B12, the “IC50 of scFv (pM)” value was 124 pM. B13: the “IC50 of IgG (pM) in BaF3-IL-22 proliferation assay” value (“IC50 of IgG (pM)” below) was found to be 83 pM. The same measure, in the same setting: in the case of B1 it was 112 pM. Regarding B14, the “IC50 of scFv (pM)” value was found to be 182 pM. Still for that read-out and setting: in the case of B15 it was 267 pM.

For B6, the “IC50 of IgG (pM)” value worked out at 92 pM.

Regarding B7, the “IC50 of IgG (pM)” value was determined as 53 pM.

For B8, the “IC50 of IgG (pM)” value was determined as 79 pM. On the same count and under the same terms, in the case of B9 it was 100 pM; in that of B2, 126 pM; in that of B3, 127 pM.

Take B16: the “IC50 of scFv (pM)” value was determined as 192 pM. With B17, the “IC50 of scFv (pM)” value came to 212 pM. Still for that read-out and setting: in the case of B18 it was 160 pM.
